{"source": "patent US20090074766A1", "about": "“Methods of inhibiting HIV-2 infection” (priority 2007, published 2009)", "molecules": {"B1": {"name": "PRO 140: humanized IgG4,κ anti-CCR5 monoclonal antibody, humanized version of murine mAb PA14 (antibody, chains of the INN, looked up, V domains shown)", "VH": "EVQLVESGGGLVKPGGSLRLSCAASGYTFSNYWIGWVRQAPGKGLEWIGDIYPGGNYIRNNEKFKDKTTLSADTSKNTAYLQMNSLKTEDTAVYYCGSSFGSNYVFAWFTYWGQGTLVTVSS", "VL": "DIVMTQSPLSLPVTPGEPASISCRSSQRLLSSYGHTYLHWYLQKPGQSPQLLIYEVSNRFSGVPDRFSGSGSGTDFTLKISRVEAEDVGVYYCSQSTHVPLTFGQGTKVEIK"}}, "key": {"R5 HIV-2 isolates": {"tested_on": "R5 HIV-2 isolates", "assay": "Inhibition of replication in PBMC cultures, RT activity readout: panel of five R5 HIV-2 isolates", "type": "cell-based", "protocol": "(§1) Two well-characterized R5 HIV-1 isolates were included for comparative purposes.\nViruses: All virus isolates were grown and titered exclusively in stimulated PBMC as described previously.\nEqual numbers of cells from each donor were then separately stimulated with 5 ug phytohemagglutinin/ml (Sigma, St. Louis, Mo.) or with surface-immobilized anti-CD3 antibody OKT3 in RPMI 1640 medium containing 10% fetal calf serum, 100 Units of interleukin-2/ml (NIH AIDS Research and Reference Reagent Program), glutamine, and antibiotics (PBMC culture medium) as previously described. After 72 hours, equal numbers of PBMC stimulated by one of these two methods from each donor were combined for use in infection assays as follows. […] The virus inoculum was adjusted to 400 to 2,000 times the TCID50 per ml in PBMC culture medium, and a 50-ul aliquot was added to each culture. The inhibitory doses refer to the concentrations of the agents present at this point in the culture, when virus, cells, and inhibitors were all present at their final concentrations.\nThe inhibition data were analyzed using GraphPad Prism software (GraphPad Software, San Diego, Calif.). A 4-parameter logistic fit was used calculate the concentration of inhibitor that afforded a 50% and a 90% reduction in RT activity. […] The % inhibitions where best-fit curve reached a top plateau, also as calculated by GraphPad Prism software, are reported as well as maximum percent inhibition (MPI). […] Inhibition curves with a poor sigmoid fit (R^2<0.7) were excluded from data analysis.\nThe panel was tested five times on a different PBMC donor pool each time, using the RT ELISA as a readout."}, "R5X4 HIV-2 isolates": {"tested_on": "R5X4 HIV-2 isolates", "assay": "Inhibition of replication in PBMC cultures, RT activity readout: two R5X4 HIV-2 isolates", "type": "cell-based", "settings": "result in words", "protocol": "as §1\nViruses: All virus isolates were grown and titered exclusively in stimulated PBMC as described previously. […] The HIV-2 isolates used in this study have been previously described (Owen, S. M., Ellenberger, D., Rayfield, M., Wiktor, S., Michel, P., Grieco, M. H., Gao, F., Hahn, B. H., and Lai, R. B. 1998. Genetically Divergent Strains of Human Immunodeficiency Virus Type 2 Use Multiple Coreceptors for Entry. J Virol 72:5425-5432) and were obtained from the NIH AIDS Research and Reference Reagent Program.\nInhibition of HIV-1 and HIV-2 replication in PBMC cultures: PBMC were isolated from 34 healthy blood donors with Ficoll-Hypaque (all media from Cellgro, Herndon, Va.) and depleted of CD8+ cells using RosetteSep CD8 depletion cocktail (StemCell Technologies) according to the manufacturer's instructions. […] Reverse Transcriptase (RT) activity was measured on Day 7 post infection (pi) for HIV-1 and Day 10 pi for HIV-2 by the Reverse Transcriptase Assay, Colorimetric kit, #11 468 120 910, Roche (Switzerland) according to the manufacturer's instructions with the following exception: neither ultracentrifugation nor PEG precipitation of the culture supernatants was performed before viral lysis.\nThe inhibition data were analyzed using GraphPad Prism software (GraphPad Software, San Diego, Calif.). […]"}, "[1]": {"settings": "Median line of the five R5 HIV-2 isolates"}}, "note": "Entries after “also recorded” stand apart in the source; their conditions may differ."}
{"molecule": "B1", "values": [{"measurement": "EC50, median over the R5 HIV-2 isolates", "setting": "R5 HIV-2 isolates; [1]", "result": 0.12, "unit": "µg/mL"}, {"measurement": "EC90, median over the R5 HIV-2 isolates", "setting": "R5 HIV-2 isolates; [1]", "result": 21, "unit": "µg/mL"}, {"measurement": "median MPI against the R5 HIV-2 isolates", "setting": "R5 HIV-2 isolates; maximum percent inhibition", "result": 96, "unit": "%"}, {"measurement": "MPI, Median Values, all R5 HIV-2 Viruses", "setting": "R5 HIV-2 isolates; median, all R5 HIV-2 viruses", "result": 96, "unit": "%"}, {"measurement": "effect on replication of R5X4 HIV-2 isolates", "setting": "R5X4 HIV-2 isolates", "result": "did not measurably inhibit replication; also recorded: Neither PRO 140 nor PA14 had any measurable effect on replication"}]}
